Reference: PMC5985231

Target: insulin receptor extracellular domain, short isoform (IR-A)
Assay: SPR

“insulin (from UniProt P01308 25-54; P01308 90-110) (ligand)” showed a Kd greater than 122 nM.
